The record followed here is US8242078B2, “Therapeutics to inhibit MLL-menin interaction for treating leukemia” (The University of Chicago, priority 2006, dated 2012).

Entries after “also recorded” stand apart in the source; their conditions may differ. Peptide text beside a SMILES is read from it.

The target of one data set is T1, interaction of transfected MLL with endogenous menin (Homo sapiens, UniProt O00255).
T1 construct: endogenous in cells; host or cells: 293 cells (lysate; cells transfected with FLAG-MLL 1-330)
T1 sequence (O00255 1-610): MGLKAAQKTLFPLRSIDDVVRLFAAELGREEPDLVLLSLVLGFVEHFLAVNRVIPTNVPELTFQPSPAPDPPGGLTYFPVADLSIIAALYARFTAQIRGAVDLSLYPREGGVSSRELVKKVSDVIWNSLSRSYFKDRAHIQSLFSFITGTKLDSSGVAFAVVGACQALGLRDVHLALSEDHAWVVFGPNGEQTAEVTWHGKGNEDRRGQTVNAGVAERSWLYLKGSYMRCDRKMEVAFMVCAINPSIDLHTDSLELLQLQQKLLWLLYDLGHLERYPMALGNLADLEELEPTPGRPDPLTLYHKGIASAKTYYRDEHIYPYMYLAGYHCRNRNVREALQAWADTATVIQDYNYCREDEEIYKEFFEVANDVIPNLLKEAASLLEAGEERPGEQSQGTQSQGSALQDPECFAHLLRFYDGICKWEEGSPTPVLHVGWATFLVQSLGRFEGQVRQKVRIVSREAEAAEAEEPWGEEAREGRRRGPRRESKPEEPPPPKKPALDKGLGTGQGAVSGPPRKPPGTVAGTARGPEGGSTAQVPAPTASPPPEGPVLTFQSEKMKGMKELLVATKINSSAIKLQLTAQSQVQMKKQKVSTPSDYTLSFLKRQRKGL
Kind of data set: Disruption of binding of transfected FLAG-tagged MLL 1-330 to endogenous menin (anti-FLAG immunoprecipitation, anti-menin Western blot). The settings on record: each peptide tested at 10, 20, and 30 μM. The protocol: To determine the precise domain that mediates the binding of MLL to menin, a series of peptides from the N-terminus of MLL were synthesized. To assess disruption of binding of transfected MLL to endogenous menin, a FLAG-tagged MLL 1-330 construct was transfected into 293 cells and the cell lysates were incubated with a series of peptides listed below or with water as a control. Cell lysates were immunoprecipitated with anti-FLAG antibody (Sigma), separated by SDS-PAGE and blotted with an anti-menin antibody (Bethyl Laboratories Inc, or Santa-Cruz). The amino acid numbers from the N-terminus of MLL are indicated below (preceding the amino acid sequence) for the peptides analyzed for their ability to disrupt the interaction of MLL and menin.
Conditional inactivation of menin results in the reversal of the transforming properties of MLL fusion proteins. A high affinity menin binding domain has been localized to the N-terminal residues of MLL, and deletion of residues 6 through 10 of MLL prevents MLL-ELL from transforming hematopoietic progenitor cells. To target the MLL-menin interaction, a series of peptides were developed for the potential to block the interaction of menin with MLL. To establish the activity of these peptides, lysates of cells transfected with FLAG-tagged N-terminal MLL sequences were examined. The lysates were immunoprecipitated with a FLAG antibody, incubated with either an MLL peptide or a control scrambled peptide, and then blotted with an anti-menin antibody. […] To examine the activity of the TAT-MLL peptide, mouse and human leukemia cell lines were treated with the TAT-MLL peptide. […] (#TIB-202, American Type Culture Collection, Manassas, Va.).
Take “CRWRFPARPG (SEQ ID NO: 14) [MLL peptide 5-14]”: the “inhibition of the binding of transfected MLL 1-330 to endogenous menin (Western blot, FIG. 2)” value is reported as “dose-dependent inhibition”.

With “RKKRRQRRR-GG-MAHSCRWRFPARPGTTGG (SEQ ID NO: 17) (RKKRRQRRRGGMAHSCRWRFPARPGTTGG) [TAT-MLL 1-18, longer MLL peptide, residues 1-18, fused to TAT]”, the “inhibition of the binding of transfected MLL 1-330 to endogenous menin (Western blot, FIG. 2)” value is “dose-dependent inhibition”.

Staying with this data set, now noted: lysates of 293 cells transfected with FLAG-tagged MLL 1-330, incubated with peptide; anti-FLAG IP, anti-menin blot.
For “AHSCRWRFPARPG (SEQ ID NO: 11) [MLL peptide 2-14, peptide from the N-terminus of MLL, amino acids 2-14]”, the “block of the interaction of transfected MLL with endogenous menin (Western blot, FIG. 1)” value (from here on “block”) is listed as “block the interaction of transfected MLL with endogenous menin”.

For “AHSCRWRFPARPGTTGG (SEQ ID NO: 7) [MLL peptide 2-18, peptide from the N-terminus of MLL, amino acids 2-18]”, the “block” value is on record as “block the interaction of transfected MLL with endogenous menin”.

As to “CRWRFPARPG (SEQ ID NO: 14) [MLL peptide 5-14]”, the “block” value is listed as “block the interaction of transfected MLL with endogenous menin; also recorded: sufficient to block interaction with endogenous menin”.

Regarding “CRWRFPARPGTTGG (SEQ ID NO: 10) [MLL peptide 5-18, peptide from the N-terminus of MLL, amino acids 5-18]”, the “block” value is recorded as “block the interaction of transfected MLL with endogenous menin”.

On to “HSCRWRFPARPG (SEQ ID NO: 12) [MLL peptide 3-14, peptide from the N-terminus of MLL, amino acids 3-14]”, for which the “block” value is reported as “block the interaction of transfected MLL with endogenous menin”.

For “HSCRWRFPARPGTTGG (SEQ ID NO: 8) [MLL peptide 3-18, peptide from the N-terminus of MLL, amino acids 3-18]”, the “block” value was “block the interaction of transfected MLL with endogenous menin”.

“MAHSCRWRFP (SEQ ID NO: 19) [MLL peptide 1-10, peptide from the N-terminus of MLL, amino acids 1-10]”: the “block” value was “do not block the interaction of MLL with menin”.

For “MAHSCRWRFPA (SEQ ID NO: 20) [MLL peptide 1-11, peptide from the N-terminus of MLL, amino acids 1-11]”, the “block” value is recorded as “do not block the interaction of MLL with menin”.

For the compound “MAHSCRWRFPAR (SEQ ID NO: 21) [MLL peptide 1-12, peptide from the N-terminus of MLL, amino acids 1-12]”, the “block” value is reported as “do not block the interaction of MLL with menin”.

Consider “MAHSCRWRFPARP (SEQ ID NO: 1) [MLL peptide 1-13, peptide from the N-terminus of MLL, amino acids 1-13]”, for which the “block” value is recorded as “block the interaction of transfected MLL with endogenous menin”.

On to “MAHSCRWRFPARPG (SEQ ID NO: 2) [MLL peptide 1-14, peptide from the N-terminus of MLL, amino acids 1-14]”, for which the “block” value is “block the interaction of transfected MLL with endogenous menin”.

Turning to “MAHSCRWRFPARPGTTGG (SEQ ID NO: 3) [MLL peptide 1-18, peptide from the N-terminus of MLL, amino acids 1-18]”, the “block” value is listed as “block the interaction of transfected MLL with endogenous menin”.

As to “MAHSCRWRFPARPGTTGGGGGG (SEQ ID NO: 4) [MLL peptide 1-22, peptide from the N-terminus of MLL, amino acids 1-22]”, the “block” value was “block the interaction of transfected MLL with endogenous menin”.

For the compound “MAHSCRWRFPARPGTTGGGGGGGRRG (SEQ ID NO: 5) [MLL peptide 1-26, peptide from the N-terminus of MLL, amino acids 1-26]”, the “block” value was “block the interaction of transfected MLL with endogenous menin”.

As for “MAHSCRWRFPARPGTTGGGGGGGRRGLGGG (SEQ ID NO: 6) [MLL peptide 1-30, peptide from the N-terminus of MLL, amino acids 1-30]”, the “block” value is “block the interaction of transfected MLL with endogenous menin”.

Take “RFPARPGTTGG (SEQ ID NO: 24) [MLL peptide 8-18, peptide from the N-terminus of MLL, amino acids 8-18]”: the “block” value is reported as “do not block the interaction of MLL with menin”.

With “RWRFPARPG (SEQ ID NO: 25) [MLL peptide 6-14, peptide from the N-terminus of MLL, amino acids 6-14]”, the “block” value is “do not block the interaction of MLL with menin”.

For the compound “RWRFPARPGTTGG (SEQ ID NO: 22) [MLL peptide 6-18, peptide from the N-terminus of MLL, amino acids 6-18]”, the “block” value was “do not block the interaction of MLL with menin”.

Turning to “SCRWRFPARPG (SEQ ID NO: 13) [MLL peptide 4-14, peptide from the N-terminus of MLL, amino acids 4-14]”, the “block” value is reported as “block the interaction of transfected MLL with endogenous menin”.

“SCRWRFPARPGTTGG (SEQ ID NO: 9) [MLL peptide 4-18, peptide from the N-terminus of MLL, amino acids 4-18]”: the “block” value was “block the interaction of transfected MLL with endogenous menin”.

As for “WRFPARPGTTGG (SEQ ID NO: 23) [MLL peptide 7-18, peptide from the N-terminus of MLL, amino acids 7-18]”, the “block” value is reported as “do not block the interaction of MLL with menin”.

The subject of the next data set is normal human CD34+ cells. The data set can be described thus: Erythroid differentiation of normal human CD34+ cells, day 10. In kind it is cell-based. The settings on record: 7.5 μm or 10 μm. Here is the method:
(§1) To assess the effects of TAT-MLL peptide on hematopoiesis, normal human CD34^+ cells were incubated with either the TAT-MLL peptide or the TAT-scrambled peptide at a concentration of either 7.5 μm or 10 μm. There was no effect of either the TAT-MLL peptide or the TAT-scrambled peptide on myeloid or erythroid differentiation. […] CD14-PE, CD15-FITC, CD71-FITC and GlyA (CD235a)-PE antibodies were obtained from Becton Dickinson
Consider `C[C@H](NC(=O)[C@@H]1CCCN1C(=O)[C@H](Cc1ccccc1)NC(=O)[C@H](CCCNC(=N)N)NC(=O)[C@H](Cc1c[nH]c2ccccc12)NC(=O)[C@H](CCCNC(=N)N)NC(=O)[C@H](CS)NC(=O)CNC(=O)CNC(=O)[C@H](CCCNC(=N)N)NC(=O)[C@H](CCCNC(=N)N)NC(=O)[C@H](CCCNC(=N)N)NC(=O)[C@H](CCC(N)=O)NC(=O)[C@H](CCCNC(=N)N)NC(=O)[C@H](CCCNC(=N)N)NC(=O)[C@H](CCCCN)NC(=O)[C@H](CCCCN)NC(=O)[C@@H](N)CCCNC(=N)N)C(=O)N[C@@H](CCCNC(=N)N)C(=O)N1CCC[C@H]1C(=O)NCC(=O)O` [TAT-MLL, RKKRRQRRR-GG-CRWRFPARPG (SEQ ID NO: 15)] (H-RKKRRQRRRGGCRWRFPARPG-OH), for which the “effect on erythroid differentiation (in words)” value is recorded as “no effect”.

The subject of the next data set is normal human CD34+ cells. Kind of data set: Myeloid differentiation of normal human CD34+ cells, day 10. In kind it is cell-based. The settings on record: 7.5 μm or 10 μm. The protocol: as §1
Regarding `C[C@H](NC(=O)[C@@H]1CCCN1C(=O)[C@H](Cc1ccccc1)NC(=O)[C@H](CCCNC(=N)N)NC(=O)[C@H](Cc1c[nH]c2ccccc12)NC(=O)[C@H](CCCNC(=N)N)NC(=O)[C@H](CS)NC(=O)CNC(=O)CNC(=O)[C@H](CCCNC(=N)N)NC(=O)[C@H](CCCNC(=N)N)NC(=O)[C@H](CCCNC(=N)N)NC(=O)[C@H](CCC(N)=O)NC(=O)[C@H](CCCNC(=N)N)NC(=O)[C@H](CCCNC(=N)N)NC(=O)[C@H](CCCCN)NC(=O)[C@H](CCCCN)NC(=O)[C@@H](N)CCCNC(=N)N)C(=O)N[C@@H](CCCNC(=N)N)C(=O)N1CCC[C@H]1C(=O)NCC(=O)O` [TAT-MLL, RKKRRQRRR-GG-CRWRFPARPG (SEQ ID NO: 15)] (H-RKKRRQRRRGGCRWRFPARPG-OH), the “effect on myeloid differentiation (in words)” value was “no effect”.
